Test results as given in article PMC9798831.

T1: ShTniQ;ShTnsC (Scytonema hofmanni;Scytonema hofmanni, UniProt A0ABR8GRC6;A0ABR8GR16 1-167;1-276, |)
T1 sequence 1: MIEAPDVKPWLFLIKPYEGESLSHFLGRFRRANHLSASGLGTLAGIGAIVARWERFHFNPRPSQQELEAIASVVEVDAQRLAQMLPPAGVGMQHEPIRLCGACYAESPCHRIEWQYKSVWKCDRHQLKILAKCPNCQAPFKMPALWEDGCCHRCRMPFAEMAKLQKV
T1 sequence 2: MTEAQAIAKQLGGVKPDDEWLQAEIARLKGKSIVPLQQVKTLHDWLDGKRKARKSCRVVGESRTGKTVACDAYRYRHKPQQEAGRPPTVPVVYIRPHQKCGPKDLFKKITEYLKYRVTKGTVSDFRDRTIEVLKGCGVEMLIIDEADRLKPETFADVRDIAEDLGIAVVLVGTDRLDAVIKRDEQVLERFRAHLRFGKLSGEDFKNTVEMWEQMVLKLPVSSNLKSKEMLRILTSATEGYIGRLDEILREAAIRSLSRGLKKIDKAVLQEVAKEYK


How the values were obtained:
[1] = target: ShTnsC (Scytonema hofmanni)
ShTniQ;ShTnsC = target: T1, ShTniQ;ShTnsC; assay: cryo-EM

| Molecule | site-specific transposition activity of ShCAST in E. coli (ddPCR) [1] [% reduction] | binding result (ShTniQ;ShTnsC) |
| --- | --- | --- |
| TniQ with alanine substitution of Trp10 (natural protein) | > 90 | – |
| TniQ with glutamate substitution of Arg155 (natural protein) | 50 | – |
| Target_69 duplex (oIQ088/oIQ089) (dsDNA) DNA 1: GCGAAGGCTTAATCATCGTGGATGAAGCCGACCACCTCGATTACCCCACGCTTGAAGAACTGCGGATCC DNA 2: GGATCCGCAGTTCTTCAAGCGTGGGGTAATCGAGGTGGTCGGCTTCATCCACGATGATTAAGCCTTCGC | – | binds |
